As a reminder, the EC50 is the midpoint of the concentration-response curve. Read a high EC50 as weaker potency.

Data on one molecule can be found in patent publication US20170368169A1 (MARENGO THERAPEUTICS, published 2017).

Test [1] has as its target T1, human mesothelin (generated from SEQ ID NO: 181) (human).
T1 construct: Antigen construct made in house; BirA was co-transfected when biotinylation was required; also called hMeso 1-7; hMesothelin
T1 chain: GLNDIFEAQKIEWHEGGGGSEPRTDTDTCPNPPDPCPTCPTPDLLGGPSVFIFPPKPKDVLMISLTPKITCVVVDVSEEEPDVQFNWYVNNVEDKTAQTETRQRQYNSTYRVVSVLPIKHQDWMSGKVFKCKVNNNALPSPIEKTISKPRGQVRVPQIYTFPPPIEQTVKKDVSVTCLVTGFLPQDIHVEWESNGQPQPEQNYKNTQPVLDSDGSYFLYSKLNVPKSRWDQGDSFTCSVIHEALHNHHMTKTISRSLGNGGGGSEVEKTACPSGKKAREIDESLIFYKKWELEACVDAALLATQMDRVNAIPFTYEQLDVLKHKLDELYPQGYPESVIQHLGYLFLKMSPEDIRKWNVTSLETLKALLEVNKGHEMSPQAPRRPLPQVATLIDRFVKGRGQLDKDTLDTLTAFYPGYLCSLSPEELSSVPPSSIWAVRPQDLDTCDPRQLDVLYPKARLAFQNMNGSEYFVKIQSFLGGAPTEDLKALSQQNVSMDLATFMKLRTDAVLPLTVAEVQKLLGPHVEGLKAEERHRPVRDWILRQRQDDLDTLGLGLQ
Kind of test: ELISA on plate-bound antigen, molecule titrated 1 uM-1 pM.

In test [2] the target is T2, human PD1L1 (generated from SEQ ID NO: 178) (human).
T2 construct: Antigen construct made in house; also called hPD1L1; human PDL1
The description is as above.

B1: Multispecific molecule 5 (bispecific antibody, human IgG1, kappa, lambda)
heavy 1: not shown
light 1: not shown
heavy 2: EVQLLESGGGLVQPGGSLRLSCAASGFTFSSYIMMWVRQAPGKGLEWVSSIYPSGGITFYADTVKGRFTISRDNSKNTLYLQMNSLRAEDTAVYYCARIKLGTVTTVDYWGQGTLVTVSSASTKGPSVFPLAPSSKSTSGGTAALGCLVKDYFPEPVTVSWNSGALTSGVHTFPAVLQSSGLYSLSSVVTVPSSSLGTQTYICNVNHKPSNTKVDKRVEPKSCDKTHTCPPCPAPELLGGPSVFLFPPKPKDTLMISRTPEVTCVVVDVSHEDPEVKFNWYVDGVEVHNAKTKPREEQYNSTYRVVSVLTVLHQDWLNGKEYKCKVSNKALPAPIEKTISKAKGQPREPQVCTLPPSREEMTKNQVSLSCAVKGFYPSDIAVEWESNGQPENNYKTTPPVLDSDGSFFLVSKLTVDKSRWQQGNVFSCSVMHEALHNHYTQKSLSLSPGK
light 2: QSALTQPASVSGSPGQSITISCTGTSSDVGGYNYVSWYQQHPGKAPKLMIYDVSNRPSGVSNRFSGSKSGNTASLTISGLQAEDEADYYCSSYTSSSTRVFGTGTKVTVLGQPKANPTVTLFPPSSEELQANKATLVCLISDFYPGAVTVAWKADGSPVKAGVETTKPSKQSNNKYAASSYLSLTPEQWKSHRSYSCQVTHEGSTVEKTVAPTECS
notes: Mesothelin targeting arm and PDL1 targeting arm
For the molecule B1, the EC50 came out at 163 nM in test [1] and 0.25 nM in test [2].
